The values that follow come from article PMC2631452, “Redox biology of Mycobacterium tuberculosis H37Rv: protein-protein interaction between GlgB and WhiB1 involves exchange of thiol-disulfide” (BMC Biochemistry, 2009).

The target in the assay is T1, purified, oxidized GlgB pre-alkylated with iodoacetamide (Mycobacterium tuberculosis H37Rv, UniProt P9WN45 1-731, free cysteines C95 and C658 alkylated with iodoacetamide; C193 and C617 in an intra-molecular disulfide bond (oxidized)).
T1 construct: GlgB (Rv1326c), Mycobacterium tuberculosis; recombinant, about 85 kDa on SDS-PAGE; also called pre-alkylated oxidized GlgB; pre-alkylated GlgB
T1 sequence: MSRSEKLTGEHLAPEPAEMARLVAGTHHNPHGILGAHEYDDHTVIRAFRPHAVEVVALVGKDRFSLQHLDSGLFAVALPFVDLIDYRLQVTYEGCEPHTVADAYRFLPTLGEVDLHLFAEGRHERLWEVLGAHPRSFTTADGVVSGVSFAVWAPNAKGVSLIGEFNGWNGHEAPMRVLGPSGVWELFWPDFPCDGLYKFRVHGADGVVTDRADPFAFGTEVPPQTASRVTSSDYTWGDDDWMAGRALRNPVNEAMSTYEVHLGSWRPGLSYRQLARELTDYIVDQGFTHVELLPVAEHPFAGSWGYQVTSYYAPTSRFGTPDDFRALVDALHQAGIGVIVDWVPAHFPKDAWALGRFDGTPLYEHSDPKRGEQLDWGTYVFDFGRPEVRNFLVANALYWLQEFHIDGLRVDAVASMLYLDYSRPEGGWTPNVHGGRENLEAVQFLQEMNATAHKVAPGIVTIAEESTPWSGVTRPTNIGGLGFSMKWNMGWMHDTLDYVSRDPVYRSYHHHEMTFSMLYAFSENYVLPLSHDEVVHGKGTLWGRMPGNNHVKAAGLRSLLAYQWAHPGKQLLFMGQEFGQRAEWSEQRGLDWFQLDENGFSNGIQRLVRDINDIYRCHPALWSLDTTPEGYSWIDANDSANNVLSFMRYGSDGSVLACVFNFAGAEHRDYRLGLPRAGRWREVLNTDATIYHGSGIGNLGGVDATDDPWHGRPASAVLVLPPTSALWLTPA
The assay is described as follows: […]; 50 mM Tris.HCl pH 8.0, 100 mM NaCl, 0.05% Triton X-100, 2 mM EDTA, 10 mM MgCl2, 25°C; […]. The following applies: both partners purified.

B1: WhiB1C40S (natural protein)
chain: MDWRHKAVCRDEDPELFFPVGNSGPALAQIADAKLVCNRSPVTTECLSWALNTGQDSGVWGGMSEDERRALKRRNARTKARTGV
notes: also called C40S mutant of WhiB1
Regarding B1, the binding result is “binds”.
